Measurements published in patent publication US20240148884A1 (Scripps Research, published 2024).
Changes are numbered by the printed parent chain. Names and notes keep the numbering of the source. Like-named read-outs stand apart in the source and are kept apart here. Bridge positions count the residues as written; N and C are the ends. Square brackets hold non-standard residues; d marks the D form. Ends that are not written are not given here. C20L5A staple = not defined here; L5A(S) staple = not defined here; C20L5A = not defined here; L5A = not defined here; Aib = CC(C)(N)C(=O)O

Experiments:
Assay in all cases: cell-based or functional assay
human GIPR [1] = molecular target: T1, human GIPR (human, UniProt P48546 22-466)
T1 sequence (looked up): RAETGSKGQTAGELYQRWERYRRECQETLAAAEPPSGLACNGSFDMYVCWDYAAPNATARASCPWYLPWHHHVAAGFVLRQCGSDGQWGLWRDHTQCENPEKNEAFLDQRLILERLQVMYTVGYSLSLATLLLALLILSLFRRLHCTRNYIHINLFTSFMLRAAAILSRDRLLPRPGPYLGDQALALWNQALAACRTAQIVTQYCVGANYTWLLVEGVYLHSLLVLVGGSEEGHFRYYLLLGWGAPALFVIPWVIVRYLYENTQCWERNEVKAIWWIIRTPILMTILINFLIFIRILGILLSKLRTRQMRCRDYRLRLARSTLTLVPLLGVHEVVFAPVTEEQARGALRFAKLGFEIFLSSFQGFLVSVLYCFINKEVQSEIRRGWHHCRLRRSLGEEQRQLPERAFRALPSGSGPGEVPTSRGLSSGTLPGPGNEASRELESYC

human GIPR [2] = molecular target: T1, human GIPR; remark: listed apart in the source
human GIPR [3] = molecular target: T1, human GIPR; remark: listed apart in the source
human GIPR [4] = molecular target: T1, human GIPR; remark: listed apart in the source
cynomolgous monkey GIPR = cynomolgous monkey GIPR (cynomolgous monkey)
cynomolgous monkey GLP1R = cynomolgous monkey GLP1R (cynomolgous monkey)
mouse GLP1R = molecular target: T2, mouse GLP1R (mouse, UniProt O35659 22-463, limits assumed)
T2 sequence (looked up): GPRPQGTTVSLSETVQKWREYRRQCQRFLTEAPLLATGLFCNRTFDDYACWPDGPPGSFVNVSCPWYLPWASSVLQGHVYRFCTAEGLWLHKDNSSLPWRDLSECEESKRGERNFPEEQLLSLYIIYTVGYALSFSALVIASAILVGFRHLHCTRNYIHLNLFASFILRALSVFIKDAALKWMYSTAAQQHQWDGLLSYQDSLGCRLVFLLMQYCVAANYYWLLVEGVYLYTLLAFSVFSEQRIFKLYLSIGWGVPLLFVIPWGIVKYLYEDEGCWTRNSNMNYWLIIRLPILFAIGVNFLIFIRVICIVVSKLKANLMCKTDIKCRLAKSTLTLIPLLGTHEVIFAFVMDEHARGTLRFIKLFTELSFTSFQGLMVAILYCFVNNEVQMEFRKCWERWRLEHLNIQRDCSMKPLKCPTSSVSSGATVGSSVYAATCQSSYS

human GLP-1R [5] = molecular target: T3, human GLP-1R (human, UniProt P43220 24-463)
human GIPR [6] = molecular target: T1, human GIPR; remark: listed apart in the source
human GLP-1R [7] = molecular target: T3, human GLP-1R; remark: listed apart in the source
human GLP-1R [8] = molecular target: T3, human GLP-1R; remark: listed apart in the source
human GLP-1R [9] = molecular target: T3, human GLP-1R; remark: listed apart in the source

Y[Aib]EGTFTSDYSIYLDKCAA[Aib]EFVCWLLAGGPSSGAPPPS-NH2 (linker 17-24 via L5A; reading uncertain) [C(17-24)-L5A] was tested, and the “EC50 of receptor-mediated cAMP synthesis” value (human GIPR [1]) was 0.05 nM.

For Y[Aib]EGTFTSDYSIYCDKQAA[Aib]CFVNWLIAGGPSSGAPPPS-NH2 (linker 14-21 via L5A; reading uncertain) [27I, C(14-21)-L5A], the “EC50 of receptor-mediated cAMP synthesis” value (human GIPR [2]) was 0.03 nM.

In the case of Y[Aib]EGTFTSDYSIYCDKQAA[Aib]CFVNWLLAGGPSSGAPPPS-NH2 (linker 14-21 via C20L5A staple; reading uncertain) [C(14-21)-C20L5A], the “EC50 of receptor-mediated cAMP synthesis” value (human GIPR [2]) is reported as 0.05 nM and the “EC50 of receptor-mediated cAMP synthesis (average)” value (“EC50 … (average)” for short) (human GIPR [3]) is reported as 0.05 nM.

B1: mCMV268 (27I, C(17-24)-C20L5A) (peptide)
peptide: YXEGTFTSDYSIYLDKCAAXEFVCWLIAGGPSSGAPPPS
modifications: Aib at positions 2 and 20; C-terminal amide (NH2); staple C20L5A attached at Cys17 and Cys24
For B1, the “In Vitro Potency GIPR EC50 [nM], 10% FBS” value (human GIPR [4]) was 0.09 nM, the “In Vitro Potency GIPR EC50 [nM], No Serum” value (human GIPR [4]) was 0.01 nM and the “In Vitro Potency GIPR EC50 [nM], Cyno” value (cynomolgous monkey GIPR) was 0.16 nM. For the same binder, the “In Vitro Potency GLP1R EC50 [nM], Cyno” value (cynomolgous monkey GLP1R) was 0.22 nM and the “EC50 of receptor-mediated cAMP synthesis (02/19)” value (“EC50 … (02/19)” below) (human GIPR [3]) was 0.05 nM.

For Y[Aib]EGTFTSDYSIYLDKCAA[Aib]EFVCWLIAGGPSSGAPPPS-NH2 (linker 17-24 via L5A(S) staple; reading uncertain) [mCMZ371 (C(17-24)-L5A(S))], the “In Vitro Potency GIPR EC50 [nM], No Serum” value (human GIPR [4]) was 0.01 nM, the “In Vitro Potency GLP1R EC50 [nM], Mouse” value (mouse GLP1R) was 0.09 nM and the “In Vitro Potency GLP1R EC50 [nM], Cyno” value (cynomolgous monkey GLP1R) was 0.11 nM.

With Y[Aib]EGTYTSDYSIYLDKCAA[Aib]EFVCWLIAGGPSSGAPPPS-NH2 (linker 17-24 via C20L5A; reading uncertain) [6Y, 27I, C(17-24)-C20L5A] the “EC50 … (02/19)” value (human GLP-1R [5]) was 0.05 nM.

B2: mCLZ715 (peptide)
peptide: YXEGTFTSDYSIYKDKQAAXKFVNWLLAGGPSSGAPPPS
modifications: Aib at positions 2 and 20; C-terminal amide (NH2); staple K5 attached at Lys14 and Lys21
With B2 the “EC50 of receptor-mediated cAMP synthesis” value (human GIPR [6]) was 0.02 nM and the “EC50 of receptor-mediated cAMP synthesis” value (human GLP-1R [7]) was 0.02 nM.

B3: mCMV266 (27I, C(14-21)-C20L5A) (peptide)
peptide: B2 peptide with K14C, K21C, L27I
modifications: Aib at positions 2 and 20; C-terminal amide (NH2); staple C20L5A attached at Cys14 and Cys21
For B3, the “EC50 of receptor-mediated cAMP synthesis” value (human GLP-1R [8]) was 0.05 nM, the “EC50 … (02/19)” value (human GLP-1R [5]) was 0.03 nM and the “EC50 of receptor-mediated cAMP synthesis (3/25)” value (shortened to “EC50 … (3/25)”) (human GLP-1R [5]) was 0.05 nM. For the same binder, the “EC50 … (average)” value (human GLP-1R [5]) was 0.05 nM.

B4: mCMC759 (C(14-21)-L5A) (peptide)
peptide: B2 peptide with K14C, K21C
modifications: Aib at positions 2 and 20; C-terminal amide (NH2); staple L5A attached at Cys14 and Cys21
In the case of B4, the “EC50 of receptor-mediated cAMP synthesis” value (human GIPR [2]) is reported as 0.03 nM and the “EC50 of receptor-mediated cAMP synthesis” value (human GIPR [1]) is reported as 0.03 nM.

B5: mCMD307 (2050-K4) (peptide)
peptide: B2 peptide
modifications: Aib at positions 2 and 20; C-terminal amide (NH2); staple K4 attached at Lys14 and Lys21
For B5, the “EC50 of receptor-mediated cAMP synthesis” value (human GIPR [2]) was 0.01 nM, the “EC50 of receptor-mediated cAMP synthesis” value (human GLP-1R [8]) was 0.03 nM and the “EC50 of receptor-mediated cAMP synthesis” value (human GIPR [1]) was 0.01 nM. The “EC50 of receptor-mediated cAMP synthesis” value (human GLP-1R [9]) was 0.03 nM, the “EC50 of receptor-mediated cAMP synthesis” value (human GIPR [6]) was 0.02 nM and the “EC50 of receptor-mediated cAMP synthesis” value (human GLP-1R [7]) was 0.01 nM. The “EC50 of receptor-mediated cAMP synthesis (03/25)” value (human GIPR [3]) was 0.01 nM, the “EC50 of receptor-mediated cAMP synthesis (03/26)” value (shortened to “EC50 … (03/26)”) (human GIPR [3]) was 0.01 nM and the “EC50 … (average)” value (human GIPR [3]) was 0.02 nM. The “EC50 … (02/19)” value (human GLP-1R [5]) was 0.01 nM, the “EC50 … (3/25)” value (human GLP-1R [5]) was 0.01 nM and the “EC50 … (03/26)” value (human GLP-1R [5]) was 0.01 nM. The “EC50 … (average)” value (human GLP-1R [5]) was 0.01 nM.

Y[Aib]EGTFTSDYSIYLDKCAA[Aib]EFVCWLLAGGPSSGAPPPS-NH2 (linker 17-24 via C20L5A; reading uncertain) [C(17-24)-C20L5A] was tested, and the “EC50 of receptor-mediated cAMP synthesis” value (human GIPR [1]) was 0.05 nM, the “EC50 of receptor-mediated cAMP synthesis (03/25)” value (human GIPR [3]) was 0.02 nM and the “EC50 … (03/26)” value (human GIPR [3]) was 0.03 nM. For the same binder, the “EC50 … (average)” value (human GIPR [3]) was 0.03 nM, the “EC50 … (3/25)” value (human GLP-1R [5]) was 0.1 nM and the “EC50 … (03/26)” value (human GLP-1R [5]) was 0.09 nM. The “EC50 … (average)” value (human GLP-1R [5]) was 0.09 nM.

For Y[Aib]EGTFTSDYSIYLDKCAQ[Aib]AFVCWLIAQGPSSGAPPPS-NH2 (linker 17-24 via C20L5A; reading uncertain) [19Q, 21A, 27I, 29Q, C(17-24) - C20L5A], the “EC50 of receptor-mediated cAMP synthesis” value (human GIPR [1]) was 0.02 nM.
